{"source": "paper PMC2737543", "about": "“The crystal structure of Haloferax volcanii proliferating cell nuclear antigen reveals unique surface charge characteristics due to halophilic adaptation” (BMC Structural Biology, 2009)", "proteins": {"B1": {"name": "Haloferax volcanii proliferating cell nuclear antigen (natural protein)", "chain": "MFKAIVSAATLRDALDSVSVLVDECKIRLNEESLSIRAVDPANVGMVDLTLDAAAFESYEAHGGVIGVNLSRLEEVAGMAGAGDLIHLTLDEETRKLNIRIDGLSYTLALIDPDSIRQEPDIPDLDLAANIVLEGTHLDRGIKAADMVSDHIRLRVDGAEETFHIEAEGDTDDVDLSLPPADLISIEAGAADSLFSLDYLKDMNKAIPTDAEVTVELGEEFPVKLHYQIAEGMGTITYMLAPRIQSD", "notes": "Homotrimer; No tag is mentioned; In the model the N-terminal methionine is missing and the C-terminus is not modelled from residue 244; also called HvPCNA; H. volcanii PCNA; source: E. coli B834 (DE3), purified (ammonium sulphate precipitation, Superdex 200, Q-sepharose FF)"}}, "biological_target": "the molecule itself", "experiment": "SEC; 10/300 Superdex 200, 50 mM HEPES pH 7.0, KCl 0.2 to 3.0 M (and equivalent NaCl); protein incubated 4 hours in the buffer before loading; 0.5 ml/min; calibrated with molecular weight standards"}
{"protein": "B1", "values": [{"measurement": "stoichiometry N", "result": 3}]}
